Reference: US20110165145A1 (published 2011)
Positions count from the first letter of the chain named. Values belong to the binder of their own block, whether it stands above or below them.

Assays:
[1] = biological target: T1, insulin-like growth factor II (IGF-II), amino acids 1-67 (human, UniProt P01344 25-91); assay: cell-based or functional assay
[2] = biological target: T2, IGF-IIE (amino acids 1-104 of pro-IGF-II) (human, UniProt P01344 25-128); assay: cell-based or functional assay
[3] = biological target: insulin-like growth factor I (IGF-I) (UniProt P05019 49-118); assay: cell-based or functional assay
insulin-like growth factor I (IGF-I), sequence (P05019 49-118 limits assumed): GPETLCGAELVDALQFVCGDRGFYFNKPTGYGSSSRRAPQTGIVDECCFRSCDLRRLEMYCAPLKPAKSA

[4] = biological target: T1, insulin-like growth factor II (IGF-II), …; assay: competition SPR (BIACORE T100), affinity in solution, free ligand read on huIR-A ECD; measurement 1
Description: (§1) Competition SPR (BIACORE®) was performed under conditions of partially mass-transport limited conditions according to previously described methodology (Nieba et al., 1996). Approximately 16,700 relative response units (RU) of huIR-A (-exon11) ectodomain was coupled by standard amine chemistry to a BIACORE® CM5 chip sensor. Uncoated flow-cell surface was used as a reference. […] Regeneration of the surface was achieved by injection of 30 ul NaCltrate/NaCl pH 4.5. […] These Req estimates were subsequently plotted against total concentrations of Fab used and the resulting inhibition curve was utilised to calculate dissociation constant (KD).

[5] = biological target: T2, IGF-IIE (amino acids 1-104 of …); assay: as above
Description: as §1

[6] = biological target: T1, insulin-like growth factor II (IGF-II), …; assay: competition SPR (BIACORE T100), affinity in solution, free ligand read on huIR-A ECD; measurement 2
Description: as §1

[7] = biological target: T2, IGF-IIE (amino acids 1-104 of …); assay: as above
Description: as §1

[8] = biological target: T1, insulin-like growth factor II (IGF-II), …; assay: SPR (Flexchip), Fab, 1st of duplicate
[9] = biological target: T2, IGF-IIE (amino acids 1-104 of …); assay: SPR (Flexchip), Fab, 1st of duplicate
[10] = biological target: T1, insulin-like growth factor II (IGF-II), …; assay: SPR (Flexchip), Fab, 2nd of duplicate
[11] = biological target: T2, IGF-IIE (amino acids 1-104 of …); assay: SPR (Flexchip), Fab, 2nd of duplicate
[12] = biological target: T3, IGF binding protein 2 (BP2) (UniProt P18065 36-325); assay: SPR (BIACORE T100): BP2 injected over M0064-E04 IgG captured on Protein G', with buffer in place of IGF-II
T3 construct: also called IGF BP2
T3 sequence (looked up): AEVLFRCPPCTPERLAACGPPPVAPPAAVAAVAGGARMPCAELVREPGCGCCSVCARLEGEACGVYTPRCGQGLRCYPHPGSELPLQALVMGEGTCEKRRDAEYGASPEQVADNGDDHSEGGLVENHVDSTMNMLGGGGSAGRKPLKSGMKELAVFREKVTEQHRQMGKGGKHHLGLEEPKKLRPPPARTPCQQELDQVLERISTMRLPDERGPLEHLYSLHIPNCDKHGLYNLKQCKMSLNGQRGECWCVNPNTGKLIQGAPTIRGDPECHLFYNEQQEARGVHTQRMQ

[13] = biological target: T4, IGF binding protein 4 (BP4) (UniProt P22692 22-258); assay: SPR (BIACORE T100): BP4 injected over M0064-E04 IgG captured on Protein G', with buffer in place of IGF-II
T4 construct: also called IGF BP4
T4 sequence (looked up): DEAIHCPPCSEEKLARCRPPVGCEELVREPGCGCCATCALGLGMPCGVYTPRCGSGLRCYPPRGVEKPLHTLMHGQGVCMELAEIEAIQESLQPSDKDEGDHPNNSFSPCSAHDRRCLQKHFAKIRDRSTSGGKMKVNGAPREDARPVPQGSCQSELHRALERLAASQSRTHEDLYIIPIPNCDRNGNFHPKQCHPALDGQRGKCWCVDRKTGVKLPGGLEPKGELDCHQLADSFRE

[14] = biological target: T1, insulin-like growth factor II (IGF-II), …; assay: SPR, IgG on Protein G', then ligand, then BP; competitor BP2; 0 = no significant competition, 5 = competes strongly
Description: (§2) BIACORE® T100 and a CM5 chip coated with Protein G were utilised to set up following assay. Approximately 1000 RU of Protein G′ was immobilized on a CM5 chip using standard amine chemistry immobilization method.
(§3) 4) Protein G′ surface was finally regenerated by injection of 10 mM Glycine pH 1.5-injected at 30 ul/min for 60 sec.

[15] = biological target: T2, IGF-IIE (amino acids 1-104 of …); assay: as above
Description: as §2, §3

[16] = biological target: T1, insulin-like growth factor II (IGF-II), …; assay: cell-based or functional assay; remark: listed apart in the source
[17] = biological target: T2, IGF-IIE (amino acids 1-104 of …); assay: cell-based or functional assay; remark: listed apart in the source
[18] = biological target: T1, insulin-like growth factor II (IGF-II), …; assay: SPR, IgG on Protein G', then ligand, then BP; competitor BP4; 0 = no significant competition, 5 = competes strongly
Description: as §2, §3

[19] = biological target: T2, IGF-IIE (amino acids 1-104 of …); assay: as above
Description: as §2, §3

[20] = biological target: T1, insulin-like growth factor II (IGF-II), …; assay: SPR (BIACORE), IgG
[21] = biological target: T2, IGF-IIE (amino acids 1-104 of …); assay: SPR (BIACORE), IgG

T1 sequence (P01344 25-91): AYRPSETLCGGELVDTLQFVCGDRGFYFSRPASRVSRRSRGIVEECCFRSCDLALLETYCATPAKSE
T2 sequence (P01344 25-128): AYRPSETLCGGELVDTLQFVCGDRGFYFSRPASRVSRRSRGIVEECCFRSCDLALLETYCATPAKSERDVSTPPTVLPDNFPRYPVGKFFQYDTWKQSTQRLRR

IC50, IGF-II stimulated Ba/F3 cell proliferation (MTS) [1]: 3.04 µg/mL
IC50, IGF-IIE stimulated Ba/F3 cell proliferation (MTS) [2]: 5.46 µg/mL
IGF-I stimulated Ba/F3 cell proliferation, sFab at 50 µg/ml [3]: ~30 % inhibition
Kd [4]: 0.608 nM
Kd [5]: 0.429 nM
Kd [6]: 1.11 nM
Kd [7]: 0.424 nM
Kd [8]: 0.12 nM
Kd [9]: 0.093 nM
Kd [10]: 0.25 nM
Kd [11]: 0.12 nM
B1: M0064-E04 Fab (Fab, V domains shown)
VH: EVQLLESGGGLVQPGGSLRLSCAASGFTFSVYDMNWVRQAPGKGLEWVSSISSSGGGTLYADSVKGRFTISRDNSKNTLYLQMNSLRAEDTAVYYCARDSDTSSYYWYYDLWGRGTLVTVSS
VL: DIQMTQSPSSLSASVGDRVTITCQASHDISNYLNWYQQKPGKAPKLLIYAASRLQSGVPSRFSGGGSGTDFSLTISSLQAEDFATYYCQQSYSFPRTFGQGTNLEIKR
notes: soluble Fab (sFab); also called R0032-A03; 566A-M0064-E04

binding result [12]: no binding (tested: 50.0 nM)
binding result [13]: no binding (tested: 50.0 nM)
competition score [14]: 5 score 0-5
competition score [15]: 4 score 0-5
IC50, IGF-II stimulated Ba/F3 cell proliferation (Guava ViaCount) [16]: ~19 nM
IC50, IGF-IIE stimulated Ba/F3 cell proliferation (Guava ViaCount) [17]: ~130 nM
competition score [18]: 5 score 0-5
competition score [19]: 4 score 0-5
Kd [20]: 0.52 nM
Kd [21]: 0.24 nM
B2: M0064-E04 IgG (parental, non-germlined) (antibody, V domains shown)
VH: B1 VH
VL: DIQMTQSPSSLSASVGDRVTITCQASHDISNYLNWYQQKPGKAPKLLIYAASRLQSGVPSRFSGGGSGTDFSLTISSLQAEDFATYYCQQSYSFPRTFGQGTNLEIK

IC50, IGF-II stimulated Ba/F3 cell proliferation (MTS) [1]: 5.56 µg/mL
IC50, IGF-IIE stimulated Ba/F3 cell proliferation (MTS) [2]: 2.04 µg/mL
IGF-I stimulated Ba/F3 cell proliferation, sFab at 50 µg/ml [3]: ~30 % inhibition
Kd [4]: 1.17 nM
Kd [5]: 2.78 nM
Kd [6]: 0.858 nM
Kd [7]: 1.47 nM
Kd [8]: 0.77 nM
Kd [9]: 0.12 nM
Kd [10]: 1.6 nM
Kd [11]: 0.2 nM
B3: M0063-F02 Fab (Fab, V domains shown)
VH: EVQLLESGGGLVQPGGSLRLSCAASGFTFSKYEMDWVRQAPGKGLEWVSVISSSGGGTIYADSVKGRFTISRDNSKNTLYLQMNSLRAEDTAMYYCARGRTLYGGAFDIWGQGTMVTVSS
VL: DIQMTQSPSSLSASVGDRVTITCRASQPINTYLNWYQQRPGKAPRILIYTSSTLQSGVPSRFSGSGSGTDFTLTISSVQPEDFATYYCQQSYSFPLTFGGGTKVEIKR
notes: soluble Fab (sFab); also called R0032-A01

competition score [14]: 1 score 0-5
competition score [15]: 1 score 0-5
IC50, IGF-II stimulated Ba/F3 cell proliferation (Guava ViaCount) [16]: 2 nM
IC50, IGF-II stimulated Ba/F3 cell proliferation (Guava ViaCount), second study [16]: ~7 nM
IC50, IGF-IIE stimulated Ba/F3 cell proliferation (Guava ViaCount) [17]: 0.85 nM
IC50, IGF-IIE stimulated Ba/F3 cell proliferation (Guava ViaCount), second study [17]: ~10 nM
competition score [18]: 0 score 0-5
competition score [19]: 1 score 0-5
B4: M0063-F02 IgG (parental) (antibody, V domains shown)
VH: B3 VH
VL: DIQMTQSPSSLSASVGDRVTITCRASQPINTYLNWYQQRPGKAPRILIYTSSTLQSGVPSRFSGSGSGTDFTLTISSVQPEDFATYYCQQSYSFPLTFGGGTKVEIK

competition score [14]: 4 score 0-5
competition score [15]: 4 score 0-5
competition score [18]: 4 score 0-5
competition score [19]: 4 score 0-5
Kd [20]: 0.14 nM
Kd [21]: 0.032 nM
B5: M0064-F02 IgG (parental, non-germlined) (antibody, V domains shown)
VH: EVQLLESGGGLVQPGGSLRLSCAASGFTFSNYIMWWVRQAPGKGLEWVSVISSSGGMTRYADSVKGRFTISRDNSKNTLYLQMNSLRAEDTAVYYCARDNGDYVGEKGFDIWGQGTMVTVSS
VL: DIQMTQSPSSLSASVGDRVTITCRASQSISNYLNWYQQKPGKAPKLLIYTASTLQSGVPSRFSGSASGTDFTLTINSLQPEDFATYSCQQSYNSPWTFGQGTKVEIK

Kd [20]: 0.023 nM
Kd [21]: < 0.023 nM
B6: X0008-A01 (germlined M0064-F02 IgG) (antibody, V domains shown)
VH: B5 VH
VL: B5 VL with A66G, N76S, S87Y
